Measured values from patent US20140286957A1 (Teva, published 2014).
Positions count from the first letter of the chain named.

B1: 401.11.87 (antibody, name in Kabat numbering, V domains shown)
VH: QVQLVGSGGGLVKPGRSLRLSCAASGFTFDDYAMHWVRQAPGKGLEWVATIIWNSAIIGYADSVKGRFIVSRDNAKNSLYLQMNSLRAEDMALYYCAKDMCSSSSCPDGYFDSWGQGTLVTVSS
VL: DIQMTQSPSSVSASVGDRVTITCRASQHISSWLAWYQQKPGKAPNLLIYAASSLQSGVSSRFSGSGSGTDFTLTISSLQPEDFATYYCQQANRFPLTFGGGTKLEIKR
B2: 401.11.88 (antibody, name in Kabat numbering, V domains shown)
VH: B1 VH with S105A
VL: B1 VL
B3: 401.11.89 (antibody, name in Kabat numbering, V domains shown)
VH: B1 VH with S105D
VL: B1 VL
B4: 401.11.90 (antibody, name in Kabat numbering, V domains shown)
VH: B1 VH with S105K
VL: B1 VL
B5: 401.11.101 (antibody, name in Kabat numbering, V domains shown)
VH: B1 VH with S105G, P107S
VL: B1 VL
B6: 401.11.102 (antibody, name in Kabat numbering, V domains shown)
VH: B1 VH with S105G, P107T
VL: B1 VL
B7: 401.11.103 (antibody, name in Kabat numbering, V domains shown)
VH: B1 VH with S105G, P107G
VL: B1 VL
B8: 401.11.104 (antibody, name in Kabat numbering, V domains shown)
VH: B1 VH with S105G, P107L
VL: B1 VL
B9: 401.11.107 (antibody, name in Kabat numbering, V domains shown)
VH: B1 VH with S105G, P107Y
VL: B1 VL
B10: 401.11.108 (antibody, name in Kabat numbering, V domains shown)
VH: B1 VH with S105G, P107R
VL: B1 VL
B11: 401.11.109 (antibody, name in Kabat numbering, V domains shown)
VH: B1 VH with S105G, P107W
VL: B1 VL
B12: 401.11.110 (antibody, name in Kabat numbering, V domains shown)
VH: B1 VH with S105G, D108K
VL: B1 VL
B13: 401.11.111 (antibody, name in Kabat numbering, V domains shown)
VH: B1 VH with S105G, D108R
VL: B1 VL
B14: 401.11.112 (antibody, name in Kabat numbering, V domains shown)
VH: B1 VH with S105G, D108S
VL: B1 VL
B15: 401.11.113 (antibody, name in Kabat numbering, V domains shown)
VH: B1 VH with S105G, D108G
VL: B1 VL
B16: 401.11.115 (antibody, name in Kabat numbering, V domains shown)
VH: B1 VH with S105G, D108Y
VL: B1 VL
B17: 401.11.116 (antibody, name in Kabat numbering, V domains shown)
VH: B1 VH with S105G, D108F
VL: B1 VL
B18: 401.11.117 (antibody, name in Kabat numbering, V domains shown)
VH: B1 VH with S105G, D108Q
VL: B1 VL

Biological target: T1, Human CD1d/β2M (human, UniProt P15813 20-301; P61769 21-119)
T1 construct: also called hCD1d; recombinant human CD1d
Test: SPR, transfection supernatant

| Binder | Kd [nM] | binding result |
| --- | --- | --- |
| B1 | 7.13 |  |
| B2 | 1.89 |  |
| B3 | 5.3 |  |
| B4 | < 0.01 |  |
| B5 | < 0.01 |  |
| B6 | 0.457 |  |
| B7 | < 0.01 |  |
| B8 | 0.487 |  |
| B9 | 0.996 |  |
| B10 | < 0.01 |  |
| B11 |  | no binding |
| B12 | 0.247 |  |
| B13 | < 0.01 |  |
| B14 | 2.43 |  |
| B15 | 0.679 |  |
| B16 | 0.667 |  |
| B17 | 37.7 |  |
| B18 | 1.33 |  |
